Square brackets hold non-standard residues; d marks the D form. Peptide text beside a SMILES is read from it. * marks the point of attachment. DOTA = O=C(O)CN1CCN(CC(=O)O)CCN(CC(=O)*)CCN(CC(=O)O)CC1

The format of series [1] is in vitro ADME. As to conditions: human, plasma, plasma protein binding (PPB). How it is done: (§1) Figure 3 Stability of the ^177Lu ligands in human plasma at 37 °C, expressed as % of intact radioligand over time, assessed by radio-HPLC. The % of plasma protein binding (PPB) after 60 min incubation is provided in parenthesis and it is expressed as the % of radioligand in the protein fraction (pellet) versus the total activity in the plasma. TEXT PRINTED IN THE PICTURE: ^177Lu-1: PPB: 35% | ^177Lu-2: PPB: 22% | ^177Lu-5: PPB: 42% | ^177Lu-6: PPB: 38% | ^177Lu-7: PPB: 39% | ^177Lu-9: PPB: 37%
For the determination of plasma protein binding (PPB), 100 μL from the plasma incubated with the ^177Lu ligand was removed and measured in a γ-counter (total radioactivity). Protein precipitation and separation followed, as described above. The supernatant and the protein pellet were then measured in a γ-counter. The percentage of plasma protein binding was calculated as the ratio between the protein-bound radioactivity and the total radioactivity in the plasma.

The subject of series [2] is Ghost-CXCR4 cells. The series is described as follows: Cellular uptake and distribution in Ghost-CXCR4 cells. As to conditions: 37 °C, 60 min. The series is classed as cell-based, human. How it is done:
Figure 4 In vitro assessment in Ghost-CXCR4 cells at 37 °C. […] Each experiment was performed in triplicate. Results are means ± SD [% of applied activity] from a minimum of two separate experiments. […] Cellular uptake was interrupted at 15, 30, and 60 min by removing the medium and washing twice with ice-cold PBS. The cell surface-bound radioligand was obtained by washing cells twice with ice-cold glycine buffer (pH 2.8) followed by a collection of the internalized fraction after treating the cells with 1 M sodium hydroxide (NaOH). The activity in each fraction was measured in a γ-counter. […] The results were expressed as a percentage of the applied radioactivity after subtracting the nonspecific uptake.

Series [3] is classed as in vitro ADME, human. As to conditions: human, plasma. How it is done:
Representative radiochromatograms are provided in Figure S25 for ^177Lu-1, ^177Lu-2, and ^177Lu-7. This included ^177Lu-9 despite its fatty acid chain.
as §1
To 1 mL of fresh human plasma, previously equilibrated at 37 °C, 500 pmol (8–10 MBq) of each ^177Lu-labeled ligand was added. The mixture was incubated at 37 °C for different time points (0, 15, 30, 60, and 120 min). At each time point, a 100 μL aliquot was removed and treated with 1.5 excess (v/v) of acetonitrile, to precipitate plasma proteins, followed by centrifugation for 5 min at 3500 rpm. The supernatant was collected and the process of protein precipitation was repeated. Afterward, 100 μL from the supernatant was taken, diluted with water at a ratio of 1:10 (v/v), and injected into radio-HPLC. The radioligand (in)stability was assessed by quantifying the percentage of intact radioligand over time.

Series [4] is described as follows: Shelf-life of 177Lu-labeled ligands at room temperature (radio-HPLC). It is filed as physicochemical. How it is done:
The shelf-life of each ^177Lu-labeled ligand was monitored at room temperature up to 24 h after radiolabeling.
The shelf-lives of ^177Lu-labeled ligands were assessed at room temperature (RT) in the buffer used for labeling, as described above. For the analysis, 5 μL was withdrawn at desired time points (0, 1, 2, 4, and 24 h) from the stock solution and mixed with 50 μL of the Ca-DTPA solution. 20 μL of this mixture was withdrawn and injected in RP-HPLC.

The test system of series [5] is Jurkat xenografts. It is filed as in vivo, mouse. As to conditions: 1 h p.i., SPECT/CT or PET/CT. How it is done: The ability of the ^177Lu ligands to target CXCR4 in vivo was assessed by SPECT/CT imaging in Jurkat xenografts. […] 1 h after injection, the remaining amount of radioligand in the body (and vice versa, the washout) was quantified by measuring the total body activity (mouse) in a dose calibrator. The % of the radioligand remaining in the body after 1 h is reported in Figure 6A as % of the remaining activity in reference to the injected activity (100%).
Figure 6 SPECT/CT images as maximum intensity projections (MIPs) of Jurkat tumor-bearing mice at 1 h p.i. of ^177Lu-labeled ligands (200 pmol, ∼15 MBq). […] (B) Same SPECT/CT images of ^177Lu-1, ^177Lu-2, ^177Lu-5, and ^177Lu-6, adapted in a lower scale. T: tumor, L: liver, and K: kidneys. […] TEXT PRINTED IN THE PICTURE: (A) ^177Lu-1: Remaining Activity (% injected): 6 % | (A) ^177Lu-2: Remaining Activity (% injected): 7 % | (A) ^177Lu-5: Remaining Activity (% injected): 7 % | (A) ^177Lu-6: Remaining Activity (% injected): 8 % | (A) ^177Lu-7: Remaining Activity (% injected): 55 % | (A) ^177Lu-9: Remaining Activity (% injected): 94 %
The experimental protocol involving animals was approved by the Veterinary Office (Department of Health) of the Cantonal Basel-Stadt (Approval No. 30515) in accordance with the Swiss regulations for animal treatment. Female athymic nude-Foxn1^nu/Foxn1^+ mice (Envigo, The Netherlands), 4–6 weeks old, were injected subcutaneously with 10^7 Jurkat cells in a 200 μL (1:1) mixture of PBS and Matrigel (CorningMatrigelMembrane matrix, Fischer Scientific, Germany) on the right shoulder. The tumors were allowed to grow for 3–4 weeks before commencement of the experiments.
Nude mice bearing Jurkat xenografts were intravenously injected via the tail vein with ∼15 MBq (200 pmol) of the ^177Lu ligands and 8 MBq (200 pmol) of ^68Ga-7 were euthanized 1 h post injection (p.i.). The radioactivity in the syringe before and after injection was measured followed by measuring the amount of radioactivity remaining in the sacrificed mice. […]

`CC[C@@H](C)[C@@H](N)C(=O)N[C@@H](CC(C)C)C(=O)N[C@@H](CCCNC(=N)N)C(=O)N[C@@H](Cc1c[nH]c2ccccc12)C(=O)N[C@@H](CO)C(=O)N[C@@H](CCCNC(=N)N)C(=O)N[C@@H](CCCCN)C(=O)N[C@@H](CCCCNC(=O)CN1CCN(CC(=O)O)CCN(CC(=O)O)CCN(CC(=O)O)CC1)C(N)=O` [^177Lu-7, metal not drawn] (H-[dI]LRWSRKK(DOTA)-NH2; N-terminus assumed) had a fraction unbound at 60 min in series [1] of 0.61. Also, in series [2], the “cellular uptake (% of the applied activity)” value was determined as 7.90 ± 1.48%. The “metabolic stability in plasma (in words)” value in series [3] was “high metabolic stability in plasma up to 4 h”. For the same compound, the “radiochemical purity (%)” value in series [4] (0 h after radiolabeling) is on record as 98 ± 1%; in series [4] (1 h after radiolabeling), 95 ± 0%; in series [4] (2 h after radiolabeling), 94 ± 0%; in series [4] (4 h after radiolabeling), 88 ± 3%. The “visualization of CXCR4-expressing tumor xenograft by imaging” value in series [5] was “accumulated and visualized the CXCR4-expressing tumor xenograft”.

The term fraction unbound denotes free concentration divided by total concentration. Read a high fraction unbound as weak binding.
